In doi:10.1101/2024.09.12.612748, “Analysis of polyclonal and monoclonal antibody to the influenza virus nucleoprotein in different oligomeric states” (bioRxiv, 2024) one finds binding result and Kd data, which are given here for one molecule.

A word on the Kd: it is the constant that tells how readily two partners part at equilibrium.

Assay [1] deals with T1, recombinant NP of influenza A/PR/8/34 (H1N1) purified from bacteria (Influenza A virus (strain A/Puerto …, UniProt P03466)).
T1 construct: source: E. coli Rosetta 2 (DE3), purified (His GraviTrap TALON)
Briefly: immunoblot. As to conditions: both partners purified. Background: A western blot detects proteins with antibodies after separation by electrophoresis.

For assay [2], the target named is T2, NP in H1N1 viral lysate (A/Puerto Rico/8/34) (Influenza A virus (strain A/Puerto …, UniProt P03466)).
T2 construct: also called viral NP; NP from lysed influenza virus
Briefly: immunoblot. As to conditions: one partner purified.

In assay [3] the target is T3, recombinant nucleoprotein (NP) from influenza A/Brisbane/10/2007 (H3N2) (Influenza A virus A/Brisbane/10/2007 …).
T3 construct: also called rNP; rNP-A
Briefly: BLI; Octet Red 96; […] (AMC) […] (6.25–200 nM), 1X PBS, association 300 s, dissociation 3,600 s, global 1:1 fit. As to conditions: both partners purified.

B1: anti-NP mouse monoclonal antibody HB65 (antibody, V domains shown)
VH: EVKLVESGGALVNPGGSLKLSCAASGFIFSSYAMSWIRQTPEKRLEWVASTSGGGTTYYLDSVRGRFTISRDNARRILYLQMTSLRSEDTAIYFCGRDGNWFTSWGQGTLVTVSI
VL: NIVMTQSPKSMSMSVGERVTLTCKASENVVTYVSWYQQKPEQSPKLLIYGASNRYTGVPDRFTGSGSATDFTLTISSVQAEDLADYHCGQGYSYPYTFGGGTKLEIK
notes: also called mAb HB65; IgG HB65; copies: 2 + 2
As for B1, the binding result in assay [1] and in assay [2] was “binds” each time. For the same molecule, the Kd in assay [3] was determined as 120 ± 21 nM.
